# Source: patent publication US6010851A, “Method for producing nucleoside-5'-phosphate ester” (Ajinomoto Co., Inc., priority 1995, dated 2000)
# What was measured:
# [1] = Phosphomonoesterase activity (inosine produced by hydrolysis of 5'-inosinic acid); assay type: biochemical; conditions: purified Escherichia blattae enzyme
# Experimental: The phosphomonoesterase activity was measured under the following condition using 5'-inosinic acid as a substrate. The reaction was performed at 30° C. for 10 minutes in a reaction solution (1 ml) containing 10 μmol/ml of 5'-inosinic acid, 100 μmol/ml of MES/NaOH buffer (pH 6.0), and an enzyme. The reaction was stopped by adding 200 μl of 2 N hydrochloric acid. After that, precipitates were removed by centrifugation. Then, inosine produced by the hydrolytic reaction was quantitatively measured. An amount of enzyme to produce 1 μmol of inosine per 1 minute under this standard reaction condition was defined as 1 unit.
# Inosine and 5'-inosinic acid were analyzed under the following condition by means of high-performance liquid chromatography (HPLC).
# [2] = Properties of the purified acid phosphatase derived from Escherichia blattae; design: species or system Escherichia blattae JCM 1650
# Experimental: A nutrient medium (pH 7.0, 50 ml) containing 1 g/dl of peptone, 0.5 g/dl of yeast extract, and 1 g/dl of sodium chloride was poured into Sakaguchi flasks (500 ml), which was sterilized at 120° C. for 20 minutes. A slant culture of Escherichia blattae JCM 1650 was inoculated to each of the flasks once with a platinum loop, which was cultivated at 30° C. for 16 hours with shaking. Microbial cells were harvested from a culture by centrifugation. The microbial cells (about 3,300 g) were suspended in 100 mM potassium phosphate buffer (1 L, pH 7.0). A ultrasonic treatment was performed at 4° C. for 20 minutes to disrupt the microbial cells. The treated suspension was centrifuged to remove its insoluble fraction. Thus a cell-free extract was prepared.
# The purified enzyme had the following properties.
molecule,measurement,setting,value
acid phosphatase derived from Escherichia blattae: enzyme purified from cell-free extract of Escherichia blattae JCM 1650; mature protein SEQ ID NO: 11 (protein) LALVATGNDTTTKPDLYYLKNSEAINSLALLPPPPAVGSIAFLNDQAMYEQGRLLRNTERGKLAAEDANLSSGGVANAFSGAFGSPITEKDAPALHKLLTNMIEDAGDLATRSAKDHYMRIRPFAFYGVSTCNTTEQDKLSKNGSYPSGHTSIGWATALVLAEINPQRQNEILKRGYELGQSRVICGYHWQSDVDAARVVGSAVVATLHTNPAFQQQLQKAKAEFAQHQKK,phosphate ester hydrolytic activity (phosphomonoesterase activity) relative to transphosphorylation activity,[1],not less than 30 times
same,Optimum temperature,[2],about 35 °C
same,Optimum pH,[2]; phosphate ester hydrolytic reaction,6.5
same,Optimum pH,[2]; transphosphorylation reaction,5.2
same,Temperature stability,[2]; treatment at pH 7.0 for 30 minutes,up to 40 °C
